Results on three molecules are retold here after patent publication US10766960 (dated 2020).

Holding throughout (experiment): SPR
On the technique in general: Surface plasmon resonance follows binding to a sensor surface in real time, without labels.

The target in one assay is T1, FcgRIIa R (human, UniProt P12318).
T1 chain: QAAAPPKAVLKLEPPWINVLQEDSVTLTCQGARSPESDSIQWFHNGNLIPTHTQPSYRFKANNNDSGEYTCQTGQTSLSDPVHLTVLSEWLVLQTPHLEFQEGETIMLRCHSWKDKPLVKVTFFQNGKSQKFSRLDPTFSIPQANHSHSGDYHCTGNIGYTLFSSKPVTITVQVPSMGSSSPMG

The target of a further assay is T2, FcgRIa (human, UniProt P12314).
T2 chain: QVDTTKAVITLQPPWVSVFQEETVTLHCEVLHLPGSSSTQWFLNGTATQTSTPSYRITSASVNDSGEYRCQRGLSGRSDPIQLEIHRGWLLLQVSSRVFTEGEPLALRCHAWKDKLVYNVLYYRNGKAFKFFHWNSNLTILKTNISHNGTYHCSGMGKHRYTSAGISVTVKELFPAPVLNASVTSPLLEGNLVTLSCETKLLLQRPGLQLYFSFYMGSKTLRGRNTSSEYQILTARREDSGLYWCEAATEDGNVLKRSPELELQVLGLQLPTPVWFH

The target in the next assay is FcgRIIIa V (human, UniProt P08637).
The target of another assay is T3, FcgRIIa H (human, UniProt P12318).
T3 chain: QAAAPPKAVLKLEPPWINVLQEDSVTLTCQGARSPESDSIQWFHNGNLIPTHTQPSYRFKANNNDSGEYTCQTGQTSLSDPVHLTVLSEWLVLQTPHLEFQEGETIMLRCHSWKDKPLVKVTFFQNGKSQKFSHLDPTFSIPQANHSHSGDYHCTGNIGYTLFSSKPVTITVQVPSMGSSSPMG

The target of another assay is T4, FcgRIIb (human, UniProt P31994).
T4 chain: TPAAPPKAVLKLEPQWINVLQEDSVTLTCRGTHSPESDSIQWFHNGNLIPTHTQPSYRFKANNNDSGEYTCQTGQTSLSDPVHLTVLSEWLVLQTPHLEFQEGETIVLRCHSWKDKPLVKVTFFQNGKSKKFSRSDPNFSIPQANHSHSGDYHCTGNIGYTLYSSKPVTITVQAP

In the next assay the target is FcgRIIIa F (human, UniProt P08637).

By Kd is commonly meant the equilibrium constant for the complex coming apart. Lower therefore signals a tighter complex.

FcgRIIIa F, sequence (P08637 17-208): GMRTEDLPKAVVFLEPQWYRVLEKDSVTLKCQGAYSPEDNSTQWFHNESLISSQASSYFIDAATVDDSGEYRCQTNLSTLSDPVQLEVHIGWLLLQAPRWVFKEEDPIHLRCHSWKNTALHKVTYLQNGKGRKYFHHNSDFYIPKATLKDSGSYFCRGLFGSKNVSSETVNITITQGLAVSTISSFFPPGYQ
FcgRIIIa V, sequence (P08637 17-208 F176V): as the sequence (P08637 17-208) above, with F160V counted along it

B1: H240-Kn232/H240-Hl068/L73-k0 (antibody)
chain 1: QDQLVQSGAEVKKPGASVKVSCKASGFNIKDTYIQWVRQAPGQGLEWMGRIDPLRKQTKYREKFEGRVTITADTSTNTAYMELSSLRSEDTAVYYCVRSGREFDYWGQGTLVTVSSASTKGPSVFPLAPSSKSTSGGTAALGCLVKDYFPEPVTVSWNSGALTSGVHTFPAVLQSSGLYSLSSVVTVPSSSLGTQTYICNVNHKPSNTKVDKKVEPKSCDKTHTCPPCPAPELYWGPIVFLFPPKPKDTLMISRTPEVTCVVVDVSDEDPEVKFNWYVDGVEVHNAKTKPREEQYNATYRVVSVLTVLHQDWLNGKEYKCKVSNKDLPAPIEKTISKAKGQPREPQVCTLPPSRDELTKNQVSLWCLVKGFYPSDIAVEWESNGQPENNYKTTPPVLDSDGSFFLYSKLTVDKSRWQQGNVFSCSVMHEALHNHYTQKSLSLSP
chain 2: QDQLVQSGAEVKKPGASVKVSCKASGFNIKDTYIQWVRQAPGQGLEWMGRIDPLRKQTKYREKFEGRVTITADTSTNTAYMELSSLRSEDTAVYYCVRSGREFDYWGQGTLVTVSSASTKGPSVFPLAPSSKSTSGGTAALGCLVKDYFPEPVTVSWNSGALTSGVHTFPAVLQSSGLYSLSSVVTVPSSSLGTQTYICNVNHKPSNTKVDKKVEPKSCDKTHTCPPCPAPELLGGPSVFLFPPKPKDTLMISRTPEVTCVVVDVSHEEPEVKFNWYVDGVEVHNAKTKPREEQYNSTYRVVSVLTVLHQDWLNGKEYKCKVSNDALPKPIEETISKAKGQPREPQVYTLPPSRCELTKNQVSLSCAVKGFYPSDIAVEWESNGQPENNYKTTPPVLDSDGSFFLVSKLTVDKSRWQQGNVFSCSVMHEALHNHYTQKSLSLSP
chain 3: DIQMTQSPSSLSASVGDRVTITCRASQDIHKYIAWYQQKPGQAPRLLIQYTSTLQPGVPSRFSGSGSGTDYTFTISSLQPEDIATYYCLQYEQLRTFGGGTKVEIKRTVAAPSVFIFPPSDEQLKSGTASVVCLLNNFYPREAKVQWKVDNALQSGNSQESVTEQDSKDSTYSLSSTLTLSKADYEKHKVYACEVTHQGLSSPVTKSFNRGEC
B1: the Kd with FcgRIIa R came to 17 nM; with FcgRIa it was 0.23 nM; with FcgRIIIa V, 0.86 nM; in the assay with FcgRIIa H it was 25 nM; in the assay with FcgRIIb, 190 nM; with FcgRIIIa F it was 3 nM.

B2: H240-Kn201/H240-Hl068/L73-k0 (antibody)
chain 1: QDQLVQSGAEVKKPGASVKVSCKASGFNIKDTYIQWVRQAPGQGLEWMGRIDPLRKQTKYREKFEGRVTITADTSTNTAYMELSSLRSEDTAVYYCVRSGREFDYWGQGTLVTVSSASTKGPSVFPLAPSSKSTSGGTAALGCLVKDYFPEPVTVSWNSGALTSGVHTFPAVLQSSGLYSLSSVVTVPSSSLGTQTYICNVNHKPSNTKVDKKVEPKSCDKTHTCPPCPAPEFQWGPMVFLFPPKPKDTLMISRTPEVTCVVVDVSDEEPEVKFNWYVDGVEVHNAKTKPREEQYNATYRVVSVLTVLHQDWLNGKEYKCKVSNKALPAPIEKTISKAKGQPREPQVCTLPPSRDELTKNQVSLWCLVKGFYPSDIAVEWESNGQPENNYKTTPPVLDSDGSFFLYSKLTVDKSRWQQGNVFSCSVMHEALHNHYTQKSLSLSP
chain 2: QDQLVQSGAEVKKPGASVKVSCKASGFNIKDTYIQWVRQAPGQGLEWMGRIDPLRKQTKYREKFEGRVTITADTSTNTAYMELSSLRSEDTAVYYCVRSGREFDYWGQGTLVTVSSASTKGPSVFPLAPSSKSTSGGTAALGCLVKDYFPEPVTVSWNSGALTSGVHTFPAVLQSSGLYSLSSVVTVPSSSLGTQTYICNVNHKPSNTKVDKKVEPKSCDKTHTCPPCPAPELLGGPSVFLFPPKPKDTLMISRTPEVTCVVVDVSHEEPEVKFNWYVDGVEVHNAKTKPREEQYNSTYRVVSVLTVLHQDWLNGKEYKCKVSNDALPKPIEETISKAKGQPREPQVYTLPPSRCELTKNQVSLSCAVKGFYPSDIAVEWESNGQPENNYKTTPPVLDSDGSFFLVSKLTVDKSRWQQGNVFSCSVMHEALHNHYTQKSLSLSP
chain 3: DIQMTQSPSSLSASVGDRVTITCRASQDIHKYIAWYQQKPGQAPRLLIQYTSTLQPGVPSRFSGSGSGTDYTFTISSLQPEDIATYYCLQYEQLRTFGGGTKVEIKRTVAAPSVFIFPPSDEQLKSGTASVVCLLNNFYPREAKVQWKVDNALQSGNSQESVTEQDSKDSTYSLSSTLTLSKADYEKHKVYACEVTHQGLSSPVTKSFNRGEC
For B2, the Kd came to 360 nM in the assay with FcgRIIa R; 0.26 nM with FcgRIa; 1.2 nM in the assay with FcgRIIIa V; 56 nM in the assay with FcgRIIa H; 3900 nM with FcgRIIb; 5.3 nM in the assay with FcgRIIIa F.

B3: H240-Kn200/H240-Hl068/L73-k0 (antibody)
chain 1: QDQLVQSGAEVKKPGASVKVSCKASGFNIKDTYIQWVRQAPGQGLEWMGRIDPLRKQTKYREKFEGRVTITADTSTNTAYMELSSLRSEDTAVYYCVRSGREFDYWGQGTLVTVSSASTKGPSVFPLAPSSKSTSGGTAALGCLVKDYFPEPVTVSWNSGALTSGVHTFPAVLQSSGLYSLSSVVTVPSSSLGTQTYICNVNHKPSNTKVDKKVEPKSCDKTHTCPPCPAPESQWGPMVFLFPPKPKDTLMISRTPEVTCVVVDVSDEEPEVKFNWYVDGVEVHNAKTKPREEQYNATYRVVSVLTVLHQDWLNGKEYKCKVSNKALPAPIEKTISKAKGQPREPQVCTLPPSRDELTKNQVSLWCLVKGFYPSDIAVEWESNGQPENNYKTTPPVLDSDGSFFLYSKLTVDKSRWQQGNVFSCSVMHEALHNHYTQKSLSLSP
chain 2: QDQLVQSGAEVKKPGASVKVSCKASGFNIKDTYIQWVRQAPGQGLEWMGRIDPLRKQTKYREKFEGRVTITADTSTNTAYMELSSLRSEDTAVYYCVRSGREFDYWGQGTLVTVSSASTKGPSVFPLAPSSKSTSGGTAALGCLVKDYFPEPVTVSWNSGALTSGVHTFPAVLQSSGLYSLSSVVTVPSSSLGTQTYICNVNHKPSNTKVDKKVEPKSCDKTHTCPPCPAPELLGGPSVFLFPPKPKDTLMISRTPEVTCVVVDVSHEEPEVKFNWYVDGVEVHNAKTKPREEQYNSTYRVVSVLTVLHQDWLNGKEYKCKVSNDALPKPIEETISKAKGQPREPQVYTLPPSRCELTKNQVSLSCAVKGFYPSDIAVEWESNGQPENNYKTTPPVLDSDGSFFLVSKLTVDKSRWQQGNVFSCSVMHEALHNHYTQKSLSLSP
chain 3: DIQMTQSPSSLSASVGDRVTITCRASQDIHKYIAWYQQKPGQAPRLLIQYTSTLQPGVPSRFSGSGSGTDYTFTISSLQPEDIATYYCLQYEQLRTFGGGTKVEIKRTVAAPSVFIFPPSDEQLKSGTASVVCLLNNFYPREAKVQWKVDNALQSGNSQESVTEQDSKDSTYSLSSTLTLSKADYEKHKVYACEVTHQGLSSPVTKSFNRGEC
As for B3, the dissociation constant (Kd) was 280 nM with FcgRIIa R; 0.5 nM in the assay with FcgRIa; 1.2 nM in the assay with FcgRIIIa V; 69 nM in the assay with FcgRIIa H; 2800 nM with FcgRIIb; 4.6 nM with FcgRIIIa F.
